Laboratory results: article PMC3214075

T1: 14-3-3, P63104
T1 chain: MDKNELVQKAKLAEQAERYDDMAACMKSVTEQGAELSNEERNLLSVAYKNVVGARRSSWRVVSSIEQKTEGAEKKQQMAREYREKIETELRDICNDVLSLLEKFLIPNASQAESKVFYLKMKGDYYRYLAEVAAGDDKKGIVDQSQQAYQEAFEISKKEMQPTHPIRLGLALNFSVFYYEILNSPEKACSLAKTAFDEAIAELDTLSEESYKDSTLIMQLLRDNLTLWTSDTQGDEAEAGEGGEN


Target: T1, 14-3-3, P63104
Experiment: GST pull-down, Western blot densitometry
Conditions: chain shown with the change; 293T cell extracts, glutathione beads; two blots quantified; parent: est. 1.5; read off a plot

| Binder | response (IB:14-3-3/total 14-3-3) |
| --- | --- |
| GST-BAD wild type, full length (pEBG-BAD), Q61337 S111A; S112A (protein) MGTPKQPSLAPAHALGLRKSDPGIRSLGSDAGGRRWRPAAQSMFQIPEFEPSEQEDASATDRGLGPSLTEDQPGPYLAPGLLGSNIHQQGRAATNSHHGGAGAMETRSRHAAYPAGTEEDEGMEEELSPFRGRSRSAPPNLWAAQRYGRELRRMSDEFEGSFKGLPRPKSAGTATQMRQSAGWTRIIQSWWDRNLGKGGSTPSQ | 1.9 |
| GST-BAD wild type, full length (pEBG-BAD), Q61337 S136A (protein) MGTPKQPSLAPAHALGLRKSDPGIRSLGSDAGGRRWRPAAQSMFQIPEFEPSEQEDASATDRGLGPSLTEDQPGPYLAPGLLGSNIHQQGRAATNSHHGGAGAMETRSRHSSYPAGTEEDEGMEEELSPFRGRSRAAPPNLWAAQRYGRELRRMSDEFEGSFKGLPRPKSAGTATQMRQSAGWTRIIQSWWDRNLGKGGSTPSQ | 0.17 |
| GST-BAD wild type, full length (pEBG-BAD), Q61337 S111A; S136A (protein) MGTPKQPSLAPAHALGLRKSDPGIRSLGSDAGGRRWRPAAQSMFQIPEFEPSEQEDASATDRGLGPSLTEDQPGPYLAPGLLGSNIHQQGRAATNSHHGGAGAMETRSRHASYPAGTEEDEGMEEELSPFRGRSRAAPPNLWAAQRYGRELRRMSDEFEGSFKGLPRPKSAGTATQMRQSAGWTRIIQSWWDRNLGKGGSTPSQ | 0.2 |
| GST-BAD wild type, full length (pEBG-BAD), Q61337 S112A (protein) MGTPKQPSLAPAHALGLRKSDPGIRSLGSDAGGRRWRPAAQSMFQIPEFEPSEQEDASATDRGLGPSLTEDQPGPYLAPGLLGSNIHQQGRAATNSHHGGAGAMETRSRHSAYPAGTEEDEGMEEELSPFRGRSRSAPPNLWAAQRYGRELRRMSDEFEGSFKGLPRPKSAGTATQMRQSAGWTRIIQSWWDRNLGKGGSTPSQ | 1.8 |
| GST-BAD wild type, full length (pEBG-BAD), Q61337 S112A; S136A (protein) MGTPKQPSLAPAHALGLRKSDPGIRSLGSDAGGRRWRPAAQSMFQIPEFEPSEQEDASATDRGLGPSLTEDQPGPYLAPGLLGSNIHQQGRAATNSHHGGAGAMETRSRHSAYPAGTEEDEGMEEELSPFRGRSRAAPPNLWAAQRYGRELRRMSDEFEGSFKGLPRPKSAGTATQMRQSAGWTRIIQSWWDRNLGKGGSTPSQ | 0.19 |
| GST-BAD wild type, full length (pEBG-BAD), Q61337 S111A; S112A; S136A (protein) MGTPKQPSLAPAHALGLRKSDPGIRSLGSDAGGRRWRPAAQSMFQIPEFEPSEQEDASATDRGLGPSLTEDQPGPYLAPGLLGSNIHQQGRAATNSHHGGAGAMETRSRHAAYPAGTEEDEGMEEELSPFRGRSRAAPPNLWAAQRYGRELRRMSDEFEGSFKGLPRPKSAGTATQMRQSAGWTRIIQSWWDRNLGKGGSTPSQ | 0.22 |
| GST-BAD wild type, full length (pEBG-BAD), Q61337 S111A (protein) MGTPKQPSLAPAHALGLRKSDPGIRSLGSDAGGRRWRPAAQSMFQIPEFEPSEQEDASATDRGLGPSLTEDQPGPYLAPGLLGSNIHQQGRAATNSHHGGAGAMETRSRHASYPAGTEEDEGMEEELSPFRGRSRSAPPNLWAAQRYGRELRRMSDEFEGSFKGLPRPKSAGTATQMRQSAGWTRIIQSWWDRNLGKGGSTPSQ | 1.7 |
